Measured values taken from the supplement of paper PMC7125110.
± gives the standard error. This sample holds only a part of the variants without activity.

B1: glmS ribozyme (parent)
chain: AUAAAAGCGCCAGAACUACAGAAAUGUAGUUGACGAGGAGGAGGUUUAUCGAAUUUUCGGCGGAUGCCUCCAAA

Columns and labels:
Conditions in all cases: with glucosamine-6-phosphate
[1] = variants of: B1; assay: self-cleavage kobs at 640 uM GlcN6P; higher = faster cleavage; RNA array
Outline: (§1)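 Tracking of barcoded ribozyme variants used a hybridised Cy3 probe at 37 °C, after in situ transcription by E. coli RNA polymerase on sequenced MiSeq chips. The flowed solution held 40 μM to 10 mM glucosamine-6-phosphate in HEPES/KCl/Mg(OAc)2 buffer, and imaging ran over ~14 h. kobs was taken from exponential decay fits of normalised per-tile medians, and kcat and KM from weighted Michaelis–Menten fits.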

[2] = variants of: B1; assay: self-cleavage kobs at 2500 uM GlcN6P; higher = faster cleavage; RNA array
Outline: as §1

[3] = variants of: B1; assay: self-cleavage kobs at 10000 uM GlcN6P; higher = faster cleavage; RNA array
Outline: as §1

Variant | self-cleavage kobs at 640 uM GlcN6P [1] | self-cleavage kobs at 2500 uM GlcN6P [2] | self-cleavage kobs at 10000 uM GlcN6P [3]
U45A U54A G60A G66C | < 1e-05 s⁻¹ |  | 
A48U U49C U55A U56C U69C | < 1e-05 s⁻¹ |  | 
U46G A53C C67U | 7.34e-05 ± 2.7e-05 s⁻¹ | 0.000252 ± 8.5e-05 s⁻¹ | 
A39G G60A U69G | < 1e-05 s⁻¹ |  | 
A39C G60U G66U | < 1e-05 s⁻¹ | < 1e-05 s⁻¹ | 
U47C U54G G60A | < 1e-05 s⁻¹ |  | 
A52C U57C C68G C70G | 0.000165 ± 5.4e-05 s⁻¹ | 0.000133 ± 5.6e-05 s⁻¹ | 
U45C A48U G60A | < 1e-05 s⁻¹ | < 1e-05 s⁻¹ | 
C50A G51U U55C | < 1e-05 s⁻¹ | < 1e-05 s⁻¹ | 
U49A C50U C67A C68G C71A | 5.04e-05 ± 1.8e-05 s⁻¹ |  | 
A42U C70A C71G | < 1e-05 s⁻¹ |  | 
U47G U49A A52G | < 1e-05 s⁻¹ |  | 
U47C C50A U69G | 5.61e-05 ± 2.5e-05 s⁻¹ | 9.43e-05 ± 2.6e-05 s⁻¹ | 
U45C U47G G51U | < 1e-05 s⁻¹ |  | 
G35C G37U U56G | < 1e-05 s⁻¹ |  | 
G51U G62U C70U | < 1e-05 s⁻¹ |  | 
C50U A53U C70G | 5.27e-05 ± 2.4e-05 s⁻¹ |  | 
G35C G40C G60C | < 1e-05 s⁻¹ |  | 
C50A C61G C68U | 8.62e-05 ± 2.5e-05 s⁻¹ |  | 
U46G C50U A53C A64U | < 1e-05 s⁻¹ | < 1e-05 s⁻¹ | 
G37C A52C | < 1e-05 s⁻¹ | < 1e-05 s⁻¹ | < 1e-05 s⁻¹
G38A U57A G66U C70A | 6.22e-05 ± 2.6e-05 s⁻¹ | 6.05e-05 ± 2.3e-05 s⁻¹ | 

Variant | self-cleavage kobs at 640 uM GlcN6P [1] | self-cleavage kobs at 2500 uM GlcN6P [2] | self-cleavage kobs at 10000 uM GlcN6P [3]
G35A A36U G41A C58A | < 1e-05 s⁻¹ | < 1e-05 s⁻¹ | 
G41A C58U C70G | < 1e-05 s⁻¹ | < 1e-05 s⁻¹ | 
A36U A48U G60U C68A | < 1e-05 s⁻¹ | < 1e-05 s⁻¹ | 
G35A U46G C61G | < 1e-05 s⁻¹ | < 1e-05 s⁻¹ | < 1e-05 s⁻¹
G51A G63U U65A | < 1e-05 s⁻¹ |  | 
G41A U65C | < 1e-05 s⁻¹ |  | 
G38U A52C A53C C68A C71U | 0.000617 ± 0.00024 s⁻¹ |  | 
G40U C61G U65G | < 1e-05 s⁻¹ | < 1e-05 s⁻¹ | 
U46G U55G U69G | 0.000454 ± 0.00015 s⁻¹ | 6.16e-05 ± 1.8e-05 s⁻¹ | 
G40A A52C G59A C68U | < 1e-05 s⁻¹ |  | 
G44A U65C | < 1e-05 s⁻¹ |  | 
G44U G62U C68A | < 1e-05 s⁻¹ | < 1e-05 s⁻¹ | 
A42U G51U A52C C70G | < 1e-05 s⁻¹ |  | 
G51C U54A U57A | < 1e-05 s⁻¹ | < 1e-05 s⁻¹ | 
A52C C67U C71G | 5.68e-05 ± 2.4e-05 s⁻¹ | 9.24e-05 ± 3.5e-05 s⁻¹ | 
G37U A39U A52C G59A | < 1e-05 s⁻¹ |  | 
G41C U46G U54C C70G | 0.00305 ± 0.00089 s⁻¹ | 0.00908 ± 0.0027 s⁻¹ | 
G41U U45G U47A C71U | 5.62e-05 ± 2.2e-05 s⁻¹ |  | 
G37A G41A A48G | < 1e-05 s⁻¹ | < 1e-05 s⁻¹ | 
G40U G43U G51C U65C | < 1e-05 s⁻¹ |  | 
G38C G51U G59A G60A | < 1e-05 s⁻¹ |  | 
A52G U55A C71A | 7.88e-05 ± 2.3e-05 s⁻¹ | 0.000169 ± 7.2e-05 s⁻¹ | 

Variant | self-cleavage kobs at 640 uM GlcN6P [1] | self-cleavage kobs at 2500 uM GlcN6P [2] | self-cleavage kobs at 10000 uM GlcN6P [3]
A39U U56A U65G | 0.000165 ± 4.5e-05 s⁻¹ |  | 0.00113 ± 0.00025 s⁻¹
G40C G41C C68A | < 1e-05 s⁻¹ |  | 
A42U A53U G59C G62C | < 1e-05 s⁻¹ | < 1e-05 s⁻¹ | 
U47G G51A A52G U65G | < 1e-05 s⁻¹ | < 1e-05 s⁻¹ | 
G37A A53G A64G | 0.000552 ± 9.7e-05 s⁻¹ | 0.00103 ± 0.0003 s⁻¹ | 0.00293 ± 0.0007 s⁻¹
A39U U46A | 0.000305 ± 7.5e-05 s⁻¹ | 0.000711 ± 0.00023 s⁻¹ | 0.00219 ± 0.00035 s⁻¹
A39U G40U C67A | 0.000118 ± 2.9e-05 s⁻¹ | 0.000561 ± 0.00019 s⁻¹ | 
G43A G44A C68U | 0.000159 ± 6.2e-05 s⁻¹ |  | 
A39G U49A C68U | < 1e-05 s⁻¹ |  | 
G41C G51U U55G | < 1e-05 s⁻¹ | < 1e-05 s⁻¹ | 
G35U U57G C71A | < 1e-05 s⁻¹ | < 1e-05 s⁻¹ | 
G37A G41A A42C U46C | < 1e-05 s⁻¹ |  | 
U49C U55A | < 1e-05 s⁻¹ | < 1e-05 s⁻¹ | 
G35C G37U | < 1e-05 s⁻¹ |  | 
G44U U45G A53C | 0.000372 ± 0.00011 s⁻¹ |  | 
A39C A42G G60C | < 1e-05 s⁻¹ | < 1e-05 s⁻¹ | 
A36U G44C C61U C71A | < 1e-05 s⁻¹ |  | 
G35A U54C A64C | < 1e-05 s⁻¹ |  | 
A42U G51C G59U | < 1e-05 s⁻¹ |  | 
G37A G41A C70U | 0.00119 ± 0.00026 s⁻¹ | 0.00206 ± 0.00053 s⁻¹ | 
U49A G59U C71G | < 1e-05 s⁻¹ |  | 
A52G C58A G63C C68G | 0.00011 ± 4.4e-05 s⁻¹ | 0.000102 ± 2.9e-05 s⁻¹ | 
